For the data set, the target named is bacterial recombinant GST-GRAIL fusion protein, Q9D304.
Sequence of bacterial recombinant GST-GRAIL fusion protein, Q9D304 (Q9D304 whole entry, looked up, the tested form may be a part): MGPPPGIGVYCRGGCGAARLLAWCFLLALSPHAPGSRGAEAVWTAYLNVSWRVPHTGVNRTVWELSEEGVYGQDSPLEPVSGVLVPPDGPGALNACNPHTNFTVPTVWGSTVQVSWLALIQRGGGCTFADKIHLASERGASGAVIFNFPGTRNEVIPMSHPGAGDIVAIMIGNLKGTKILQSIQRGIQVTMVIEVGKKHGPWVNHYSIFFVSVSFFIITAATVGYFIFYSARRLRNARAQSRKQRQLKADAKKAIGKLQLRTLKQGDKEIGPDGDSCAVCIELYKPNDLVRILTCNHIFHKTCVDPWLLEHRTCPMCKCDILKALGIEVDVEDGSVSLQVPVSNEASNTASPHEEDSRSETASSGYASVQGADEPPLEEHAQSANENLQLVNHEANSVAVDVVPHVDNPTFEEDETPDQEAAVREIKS

B1: USP8 expressed in E. coli (pET28) (protein)
chain: MPAVASVPKELYLSSSLKDLNKKTEVKPEKTSTKNYIHSAQKIFKTAEECRLDRDEERAYVLYMKYVAVYNLIKKRPDFKQQQDYYLSILGPANIKKAIEEAERLSESLKLRYEEAEVRKQLEEKDRREEEQLQQQKRQEMGREDSGAAAKRSVENLLDSKTKTQRINGEKSEGAAAAERGAITAKELYTMMMDKNTSLIIMDARKIQDYQHSCILDSLSVPEEAISPGVTASWIEANLSDDSKDTWKKRGSVDYVVLLDWFSSAKDLLLGTTLRSLKDALFKWESKTVLRHEPLVLEGGYENWLLCYPQFTTNAKVTPPPRSRAEEVSVSLDFTYPSLEEPVPSKLPTQMPPPPIETNEKALLVTDQDEKLRLSTQPALAGPGAAPRAEASPIIQPAPATKSVPQVDRTKKPSVKLPEDHRIKSENTDQSGRVLSDRSTKPVFPSPTTMLTDEEKARIHQETALLMEKNKQEKELWDKQQKEQKEKLRREEQERKAGKTQDADERDSTENQHKAKDGQEKKDSKQTKTEDRELSADGAQEATGTQRQSKSEHEASDAKVPVEGKRCPTSEAQKRPADVSPASVSGELNAGKAQREPLTRARSEEMGRIVPGLPLGWAKFLDPITGTFRYYHSPTNTVHMYPPEMAPSSAPPSTPPTHKVKPQVPAERDREPSKLKRSYSSPDITQALQEEEKRRPAVTPMVNRENKPPCYPKAEISRLSASQIRNLNPVFGGSGPALTGLRNLGNTCYMNSILQCLCNAPHLADYFNRNCYQDDINRSNLLGHKGEVAEEFGIIMKALWTGQYRYISPKDFKVTIGKINDQFAGSSQQDSQELLLFLMDGLHEDLNKADNRKRHKEENNEHLDDLQAAEHAWQKHKQLNESIIVALFQGQFKSTVQCLTCRRRSRTFEAFMYLSLPLASTSKCTLQDCLRLFSKEEKLTDNNRFYCSHCRARRDSLKKIEIWKLPPVLLVHLKRFSYDGRWKQKLQTSVDFPLENLDLSQYVIGPKNSLKKYNLFSVSNHYGGLDGGHYTAYCKNAARQRWFKFDDHEVSDISVSSVRSSAAYILFYTSLGPRITDVAT
As for B1, the “de-ubiquitination of auto-ubiquitinated GST-GRAIL in vitro” value is “USP8 is capable of de-ubiquitinating GRAIL in vitro”.
